# Where a chain is given by its changes, count along the chain named. Names and notes keep the numbering of the source. “Also recorded” adds a separate entry of the source.
# B1: ScMT: about 66% homologous enzyme from Streptomyces clavuligerus (protein, listed as Streptomyces clavuligerus)
# chain: MPQELAGELRVTAAQVGAWYDQFGDIYHQTLGESIHCGLWFPPDEPHPARVDLVSLSSEAQDRFTDYLIKTLDPHADQHVLDIGCGTGRSALRLSQQRGAKVTGVAISKVQIEHANRLAETHDLSDRLVFEHADAMHLPYEDESFDSAWAIESLCHMDRAKALREAYRVLRPGGDFLLLESVLTNPLTEAEATSLDTMLAANTPLWLPEFFELITRAGFETLELKDLSANLAMTMNVLELVCHDRREEFTRRFGAEFTELLMAGLPEARNITARKTRFFMLLLRKPPVPAN
# B2: pMT11: pMT1 with Y200F S182E L273V L180A A202L Y65F C156D T91P (protein)
# chain: MPQEARTPQQQVTADEVGDWYDKFGEVYHLTLGESVHCGLWFPPDAPVPQDMELVTMSSQAQDRFTDYLIETLDPKAGQHLLDIGCGTGRPALKAARQRGIAVTGVAVSKEQIAAANRLAAGHGLTERLTFEVADAMRLPYEDESFDCAWAIESLDHMDRAKALGEAWRVLKPGGDLLVAEEVVTEELTEPETALFETLFALNVPPRLGEFFDIVSGAGFHTLSLKDLSANLAMTMNVFALGVYSRRAEFTERFGAEFVDGLLAGLGSAQETVIRKTRFFMATLRKPAV
# modifications: Modified from pMT1
# notes: pMT1 with Y200F S182E L273V L180A A202L Y65F C156D T91P
# B3: pMT13: pMT12 with Y244A S245A G267P (protein)
# chain: B2 chain with N231D, Y244A, S245A, G267P
# modifications: Modified from pMT1
# notes: pMT12 with Y244A S245A G267P
# B4: pMT2: pMT1 with Y200F (protein)
# chain: B2 chain with F65Y, P91T, D156C, A180L, E182S, L202A, V273L
# modifications: Modified from pMT1
# notes: pMT1 with Y200F
# B5: pMT1_Y200L: pMT1 with Y200L (protein)
# chain: B2 chain with F65Y, P91T, D156C, A180L, E182S, F200L, L202A, V273L
# B6: P191S: pMT12 with P191S (protein)
# chain: B2 chain with P191S, N231D
# modifications: Modified from pMT1
# B7: pMT8: pMT1 with Y200F S182E L273V L180A A202L C156P (protein)
# chain: B2 chain with F65Y, P91T, D156P
# modifications: Modified from pMT1
# notes: pMT1 with Y200F S182E L273V L180A A202L C156P
# B8: pMT14: pMT13 with E197R (protein)
# chain: B2 chain with E197R, N231D, Y244A, S245A, G267P
# modifications: Modified from pMT1
# notes: pMT13 with E197R
# B9: pMT4: pMT1 with Y200F S182E L273V (protein)
# chain: B2 chain with F65Y, P91T, D156C, A180L, L202A
# modifications: Modified from pMT1
# notes: pMT1 with Y200F S182E L273V
# B10: pMT6: pMT1 with Y200F S182E L273V L180A A202L (protein)
# chain: B2 chain with F65Y, P91T, D156C
# modifications: Modified from pMT1
# notes: pMT1 with Y200F S182E L273V L180A A202L
# B11: pMT3: pMT1 with Y200F S182E (protein)
# chain: B2 chain with F65Y, P91T, D156C, A180L, L202A, V273L
# modifications: Modified from pMT1
# notes: pMT1 with Y200F S182E
# B12: pMT5: pMT1 with Y200F S182E L273V L180A (protein)
# chain: B2 chain with F65Y, P91T, D156C, L202A
# modifications: Modified from pMT1
# notes: pMT1 with Y200F S182E L273V L180A
# B13: SaMT: methyltransferase from Streptomyces albireticuli, about 68% sequence identity to pMT1 (protein, listed as Streptomyces albireticuli)
# chain: MPQESAQELKVTADEVGDWYDRFGDIYHETLGESVHCGLWFPPDEPHPTSMDLVDLSSRAQDRYTDYLIETLDPRPGDHVLDIGCGTGRSALRLVQQRDARVTGVAISKEQIARADRLANEHGLTDRLTFAYADAQALPYEDGTFDRAWAVESICHMDRAKALQEAWRVLRPGGDLMVLESVLTGELTAEDTAVFQVMLASNLPPTLPEFFGLVGDAGFETLELKDLSANLAMTMNVMALVCHDRKEEFTERFGAEFMEGVVQGLPKAREVVARKTRFFLVMLRKPLA
# Assay: Cell lysate reaction of pMT enzymes with psi-ionone, irones quantified by HS-SPME-GCMS
# Format: biochemical
# Details: for irone production / methyltransferase activity towards psi-ionone (in words): cell lysate reaction, vs parent or control; for cis-α-irone content (percentage of cis-α-irone in the irone mixture): cell extracts with psi-ionone; for fold change in cis-α-irone produced: AUC vs non-mutated (=1); for improvement of total turnover number (TTN): vs pMT1, TTN = cis-α-irone produced / soluble pMT enzyme
# Protocol: Using the structure of pMT1 in complex with the cofactor S-adenosyl-L-homocysteine (SAH) and the substrate teleocidin A1 (PDB id: 5GM2) as a template, pMT1 bound to each of the four isomers of α-irone was modelled with the aim of identifying amino acid residues that could be critical to increase cis-α-irone or decrease trans-α-irone production (FIGS. 2d and 2e). […] Site-directed mutagenesis of the 24 residues was carried out with degenerative primers. Subsequently, the mutants of each site were pooled together, and examined if the activity or product-selectivity of the pooled mutants were increased (FIG. 8). This reduced the number of screening reactions to 24, which is manageable when a high-throughput enzymatic assay is not available. […] One residue was chosen and subjected to site-saturation mutagenesis by using degenerative primers containing NNN or NNK. The plasmid library was then transformed into E. coli BL21 (DE3) cells and plated on agar plate containing autoinduction media^19. […] Subsequently, the colonies were collected and resuspended in phosphate saline buffer. Equal number of cells was taken for lysis and cell lysate reactions were carried out in capped SPME-GC vials at 28° C. for 2 days. HS-SPME-GCMS analysis was used to quantify the amount of irones produced by each pooled-colony reaction. […] 24 residues including the control Gly85 (G85m) were subjected to site-saturation mutagenesis, using pMT1 as the template. […] The amount of cis-α-irone produced was estimated based on the area under the gas chromatogram curve (AUC). The fold change is calculated by comparing the AUC of cis-α-irone produced by the mutant enzyme to that of non-mutated.
# For each pMT mutant, it was transformed into BL21 and grown in autoinduction media with 5 mM lactose at 20° C. for 36 hrs. Then, cells were pelleted and concentrated 10 times by adding 1 ml of PBS. The OD600 was measured and 40*600 OD*ul cells were transferred into a new 1.5 ml tube. The cells were spun down and resuspended in 600 μl of lysis buffer (1×DNase buffer, 150 mM NaCl, 0.5% glycerol, 1 mg/ml lysozyme and 20U of DNasel). The cells were incubated for 2 hrs at 20° C. with shaking at 300 rpm. Following that, 2 cycles of freeze-thaw was done to completely lyse the cells. At the end of the 2nd thawing, the cell lysate was used to setup a 1 ml reaction in 2 ml GC vials. The reaction consisted of 50 mM Tris (pH7), 10 mM MgCl2, 60 mM NaCl, 0.2 mM SAM and 10 mg/L of psi-ionone and caryophyllene each. To this, 500 μl of cell lysate was added while the remaining 100 μl was used for SDS-PAGE to analyze the total and soluble protein expression. The reaction was incubated for 2 days at 28° C., 300 rpm prior to extraction of cis-α-irone with 500 μl hexane. From this, 20 μl of organic layer was taken into 180 μl hexane for GCMS analysis.
# For the mutant pMT activity screening, the reactants and products were analyzed by head space solid phase microextraction (HS-SPME) coupled with an Agilent 5977B gas chromatography (GC) system equipped with Agilent DB-5 ms column (30 m×250 μm×0.25 μm) and mass spectrometry (MS) with high efficiency source. The reaction mixtures were carried out in SPME vials which were incubated at 60° C. for 20 mins to allow the release of volatile compounds. The absorbent fiber (50/30 μm divinylbenzol/carboxen/polydimethyl-SPME fiber, SUPELCO) was then exposed to the headspace of the vial for 20 mins. The extracted analytes were desorbed at the GC inlet at 250° C. for 1 min and injected into GC with a split ratio of 200:1. The GC oven temperature increased from 50° C. to 140° C. at a rate of 10° C./min and held at 140° C. for 10 min. Subsequently, the temperature was increased to 320° C. at a rate of 60° C./min and held at 320° C. for 2 mins.
molecule,measurement,setting,value
B1,irone production / methyltransferase activity towards psi-ionone (in words),,not active towards psi-ionone
B2,irone production / methyltransferase activity towards psi-ionone (in words),,improved cis-α-irone production both by the fold change and percentage
B3,irone production / methyltransferase activity towards psi-ionone (in words),,maintained the percentage of cis-α-irone produced while further improving the absolute amount produced
B4,cis-α-irone content (percentage of cis-α-irone in the irone mixture),,~68%
same,fold change in cis-α-irone produced,pMT1_Y200 mutants,12.2
same,fold change in cis-α-irone produced,pMT2_C156 mutants,1.0
same,fold change in cis-α-irone produced,pMT2_F196 mutants,1.0
same,fold change in cis-α-irone produced,pMT2_L180 mutants,1.0
same,fold change in cis-α-irone produced,pMT2_L232 mutants,1.0
same,fold change in cis-α-irone produced,pMT2_M236 mutants,1.0
same,fold change in cis-α-irone produced,pMT2_S182 mutants,1.0
same,fold change in cis-α-irone produced,pMT2_T277 mutants,1.0
same,fold change in cis-α-irone produced,pMT2_V36 mutants,1.0
same,improvement of total turnover number (TTN),,> 12 fold
B5,irone production / methyltransferase activity towards psi-ionone (in words),,improved trans-α-irone production
same,fold change in cis-α-irone produced,pMT1_Y200 mutants,0.4
B6,in-vitro production of cis-α-irone (in words),single mutations vs parent (pMT7 or pMT12),moderate increase
B7,irone production / methyltransferase activity towards psi-ionone (in words),,further improved the TTN of the enzyme
same,fold change in cis-α-irone produced,pMT6_C156 mutants,1.1
B8,irone production / methyltransferase activity towards psi-ionone (in words),,reduced the fold change of cis-α-irone to a similar level as pMT10
B9,cis-α-irone content (percentage of cis-α-irone in the irone mixture),,~80%
same,irone production / methyltransferase activity towards psi-ionone (in words),,highest cis-α-irone and lowest trans-α-irone production
same,fold change in cis-α-irone produced,pMT3_L273 mutants,1.5
same,fold change in cis-α-irone produced,pMT4_L180 mutants,1
same,fold change in cis-α-irone produced,pMT4_T277 mutants,1.0
B10,irone production / methyltransferase activity towards psi-ionone (in words),,significantly increased the cis-α-irone concentration
same,β-irone share of the irone mixture,cell lysate with psi-ionone,~30%
same,fold change in cis-α-irone produced,pMT5_A202 mutants,4.3
same,fold change in cis-α-irone produced,pMT6_C156 mutants,1.0
same,fold change in cis-α-irone produced,pMT6_Y65 mutants,1.0
B11,cis-α-irone content (percentage of cis-α-irone in the irone mixture),,74%
same,irone production / methyltransferase activity towards psi-ionone (in words),,significant increase in cis-α-irone was detected; also recorded: predominantly 1R5S was produced
same,fold change in cis-α-irone produced,pMT2_S182 mutants,5.4
same,fold change in cis-α-irone produced,pMT3_E153 mutants,1.0
same,fold change in cis-α-irone produced,pMT3_L273 mutants,1.0
same,improvement of total turnover number (TTN),,"more than 1,000 fold"
B12,cis-α-irone content (percentage of cis-α-irone in the irone mixture),,~90%
same,fold change in cis-α-irone produced,pMT4_L180 mutants,1.8
same,fold change in cis-α-irone produced,pMT5_A102 mutants,1.0
same,fold change in cis-α-irone produced,pMT5_A202 mutants,1.0
same,fold change in cis-α-irone produced,pMT5_T104 mutants,1
B13,irone production / methyltransferase activity towards psi-ionone (in words),,converted psi-ionone to predominantly trans-α-irone
